Numbering of substitutions follows the chain as printed. Names and notes keep the numbering of the source.
B1: dual inhibitor molecule A (VEGF Trap-AntiIL-6) (other)
heavy: SDTGRPFVEMYSEIPEIIHMTEGRELVIPCRVTSPNITVTLKKFPLDTLIPDGKRIIWDSRKGFIISNATYKEIGLLTCEATVNGHLYKTNYLTHRQTNTIIDVVLSPSHGIELSVGEKLVLNCTARTELNVGIDFNWEYPSSKHQHKKLVNRDLKTQSGSEMKKFLSTLTIDGVTRSDQGLYTCAASSGLMTKKNSTFVRVHEKGGGGSGGGGSEVQLVESGGGLVQPGGSLRLSCAASGFTFSPFAISWVRQAPGKGLEWVAKISPGGSWTYYSDTVTDRFTFSLDTSKSTAYLQMNSLRAEDTAVYYCARQLWGYYALDVWGQGTLVTVSSASTKGPSVFPLAPSSKSTSGGTAALGCLVKDYFPEPVTVSWNSGALTSGVHTFPAVLQSSGLYSLSSVVTVPSSSLGTQTYICNVNHKPSNTKVDKKVEPKSCDKTHTCPPCPAPEAAGAPSVFLFPPKPKDTLMISRTPEVTCVVVDVSHEDPEVKFNWYVDGVEVHNAKTKPREEQYNSTYRVVSVLTVLHQDWLNGKEYKCKVSNKALPAPIEKTISKAKGQPREPQVYTLPPSREEMTKNQVSLTCLVKGFYPSDIAVEWESNGQPENNYKTTPPVLDSDGSFFLYSKLTVDKSRWQQGNVFSCSVMHEALHNHYTQKSLSCSPGK
light: DIQLTQSPSSLSASVGDRVTITCSASISVSYLYWYQQKPGKAPKLLIYDDSSLASGVPSRFSGSGSGTDFTLTISSLQPEDFATYYCQQWSGYPYTFGQGTKVEIKRTVAAPSVFIFPPSDEQLKSGTASVVCLLNNFYPREAKVQWKVDNALQSGNSQESVTEQDSKDSTYSLSSTLTLSKADYEKHKVYACEVTHQGLSSPVTKSFNRGEC
B2: dual inhibitor molecule B (VEGF Trap-AntiIL-6) (other)
heavy: B1 heavy
light: B1 light with D50A
notes: Trap-antibody fusion, VEGF trap at the N-terminus of the anti-IL-6 heavy chain (VH variant I); light chain variant IV
B3: dual inhibitor molecule C (VEGF Trap-AntiIL-6) (other)
heavy: B1 heavy
light: B1 light with S52N
notes: Trap-antibody fusion, VEGF trap at the N-terminus of the anti-IL-6 heavy chain (VH variant I); light chain variant V
B4: dual inhibitor molecule D (VEGF Trap-AntiIL-6) (other)
heavy: B1 heavy with I249W
light: B1 light
notes: Trap-antibody fusion, VEGF trap at the N-terminus of the anti-IL-6 heavy chain (VH variant II); light chain variant III
B5: dual inhibitor molecule E (VEGF Trap-AntiIL-6) (other)
heavy: B1 heavy with I249W
light: B1 light with D50A
notes: Trap-antibody fusion, VEGF trap at the N-terminus of the anti-IL-6 heavy chain (VH variant II); light chain variant IV
B6: dual inhibitor molecule F (VEGF Trap-AntiIL-6) (other)
heavy: B1 heavy with I249W
light: B1 light with S52N
notes: Trap-antibody fusion, VEGF trap at the N-terminus of the anti-IL-6 heavy chain (VH variant II); light chain variant V
B7: anti-IL-6 antibody, heavy chain WT, light chain I27L (antibody, IgG1, V domains shown)
VH: EVQLVESGGGLVQPGGSLRLSCAASGFTFSPFAMSWVRQAPGKGLEWVAKISPGGSWTYYSDTVTGRFTFSLDTSKSTAYLQMNSLRAEDTAVYYCARQLWGYYALDIWGQGTLVTVSS
VL: DIQLTQSPSSLSASVGDRVTITCSASLSVSYMYWYQQKPGKAPKLLIYDMSNLASGVPSRFSGSGSGTDFTLTISSLQPEDFATYYCMQWSGYPYTFGQGTKVEIK
notes: Full IgG1 tested; V domains derived as in m2
B8: anti-IL-6 antibody, heavy chain WT, light chain I27W (antibody, IgG1, V domains shown)
VH: B7 VH
VL: B7 VL with L27W
notes: as for B7
B9: anti-IL-6 antibody, light chain M32L (heavy chain WT) (antibody, V domains shown)
VH: B7 VH
VL: B7 VL with L27I, M32L
notes: See note of m2; also called WT / M32L
B10: anti-IL-6 antibody, heavy chain variant I (M34I, G66D, I108V) / light chain variant III (M32L, M50D, N52S, M88Q) (antibody, human IgG1, V domains shown)
VH: B7 VH with M34I, G66D, I108V
VL: B7 VL with L27I, M32L, M50D, N52S, M88Q
notes: also called M34I, G66D, I108V/ M32L, M50D, N52S, M88Q; I/III
B11: anti-IL-6 antibody, heavy chain variant I (M34I, G66D, I108V) / light chain variant IV (M32L, M50A, N52S, M88Q) (antibody, V domains shown)
VH: B7 VH with M34I, G66D, I108V
VL: B7 VL with L27I, M32L, M50A, N52S, M88Q
notes: See note of m39; also called M34I, G66D, I108V/ M32L, M50A, N52S, M88Q; I/IV
B12: anti-IL-6 antibody, heavy chain variant I (M34I, G66D, I108V) / light chain variant V (M32L, M50D, M88Q) (antibody, V domains shown)
VH: B7 VH with M34I, G66D, I108V
VL: B7 VL with L27I, M32L, M50D, M88Q
notes: See note of m39; also called M34I, G66D, I108V/ M32L, M50D, M88Q; I/V
B13: anti-IL-6 antibody, heavy chain variant II (M34W, G66D, I108V) / light chain variant III (M32L, M50D, N52S, M88Q) (antibody, V domains shown)
VH: B7 VH with M34W, G66D, I108V
VL: B7 VL with L27I, M32L, M50D, N52S, M88Q
notes: See note of m39; also called M34W, G66D, I108V/ M32L, M50D, N52S, M88Q; II/III
B14: anti-IL-6 antibody, heavy chain variant II (M34W, G66D, I108V) / light chain variant IV (M32L, M50A, N52S, M88Q) (antibody, V domains shown)
VH: B7 VH with M34W, G66D, I108V
VL: B7 VL with L27I, M32L, M50A, N52S, M88Q
notes: See note of m39; also called M34W, G66D, I108V/ M32L, M50A, N52S, M88Q; II/IV
B15: anti-IL-6 antibody, heavy chain variant II (M34W, G66D, I108V) / light chain variant V (M32L, M50D, M88Q) (antibody, V domains shown)
VH: B7 VH with M34W, G66D, I108V
VL: B7 VL with L27I, M32L, M50D, M88Q
notes: See note of m39; also called M34W, G66D, I108V/ M32L, M50D, M88Q; II/V
B16: anti-IL-6 antibody, light chain D49E (heavy chain WT) (antibody, V domains shown)
VH: B7 VH
VL: B7 VL with L27I, D49E
notes: See note of m2; also called WT / D49E
B17: anti-IL-6 antibody, light chain M32V (heavy chain WT) (antibody, V domains shown)
VH: B7 VH
VL: B7 VL with L27I, M32V
notes: See note of m2; also called WT / M32V
B18: anti-IL-6 antibody, light chain M50D (heavy chain WT) (antibody, V domains shown)
VH: B7 VH
VL: B7 VL with L27I, M50D
notes: See note of m2; also called WT / M50D
B19: anti-IL-6 antibody, light chain M88A (heavy chain WT) (antibody, V domains shown)
VH: B7 VH
VL: B7 VL with L27I, M88A
notes: See note of m2; also called WT / M88A
B20: anti-IL-6 antibody, light chain M88V (heavy chain WT) (antibody, V domains shown)
VH: B7 VH
VL: B7 VL with L27I, M88V
notes: See note of m2; also called WT / M88V
B21: anti-IL-6 antibody, light chain T96L (heavy chain WT) (antibody, V domains shown)
VH: B7 VH
VL: B7 VL with L27I, T96L
notes: See note of m2; also called WT / T96L
B22: anti-IL-6 antibody, light chain T96V (heavy chain WT) (antibody, V domains shown)
VH: B7 VH
VL: B7 VL with L27I, T96V
notes: See note of m2; also called WT / T96V

target: T1, recombinant human IL-6 (human, UniProt P05231 30-212); test: SPR Biacore, supernatant dual inhibitor on Protein A chip, IL-6 analyte, 25 C
T1 construct: Bought protein
T1 sequence (P05231 30-212 limits assumed): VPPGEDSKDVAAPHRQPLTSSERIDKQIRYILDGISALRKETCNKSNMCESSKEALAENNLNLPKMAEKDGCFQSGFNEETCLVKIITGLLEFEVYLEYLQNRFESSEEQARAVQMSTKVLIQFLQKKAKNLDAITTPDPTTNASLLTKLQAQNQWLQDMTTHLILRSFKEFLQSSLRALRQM

Row | Binder | Kd [nM] | koff [s⁻¹] | kon [M⁻¹ s⁻¹]
1 | B1 | 0.589 | 0.000182 | 309000
2 | B2 | 0.305 | 0.000185 | 605000
3 | B3 | 0.394 | 0.00015 | 379000
4 | B4 | 0.253 | 0.000109 | 433000
5 | B5 | 0.299 | 0.000151 | 504000
6 | B6 | 0.225 | 0.000137 | 611000

target: T2, recombinant human IL-6 (human, UniProt P05231 30-212); test: SPR (Biacore), purified IgG on Protein A, 37 C
T2 construct: Flowed in solution over the captured antibodies
Protocol: (§1) Antibodies were captured on a Protein A chip (GE) by injecting 1:20 dilution of cell supernatant at 10 μL/min for 60 seconds. […] The sensor chip was regenerated by a 60 seconds injection of 10 mM Glycine pH 1.7 at flow rate of 50 μL/min. […] For this setup, 1 μg/mL of purified antibody was injected over a Protein A chip at 10 μL/min for 25-28 seconds. Data analysis for supernatant and purified samples were performed using BIAevaluation software (GE). All sensorgrams were double reference subtracted and fit using a 1:1 Langmuir binding model.
T2 sequence (P05231 30-212 limits assumed): as above

Row | Binder | Kd [nM] | koff [s⁻¹] | kon [M⁻¹ s⁻¹]
7 | B7 | 0.553 | 0.000449 | 811000
8 | B8 | 0.719 | 0.000764 | 1.06e+06

target: T2, recombinant human IL-6; test: SPR (Biacore), supernatant IgG on Protein A, 25 C

Row | Binder | Kd [nM] | koff [s⁻¹] | kon [M⁻¹ s⁻¹]
9 | B7 | 0.332 | 0.000145 | 437000
10 | B8 | 0.33 | 0.000161 | 487000

target: T1, recombinant human IL-6; test: SPR Biacore, purified Ab on Protein A chip, IL-6 analyte, 37 C
Protocol: as §1

Row | Binder | Kd [nM] | koff [s⁻¹] | kon [M⁻¹ s⁻¹]
11 | B9 | 0.395 | 0.00035 | 885000
12 | B10 | 0.625 | 0.000702 | 1.22e+06
13 | B11 | 0.556 | 0.000757 | 1.15e+06
14 | B12 | 0.602 | 0.00073 | –
15 | B13 | 0.507 | 0.000551 | 1.19e+06
16 | B14 | 0.615 | 0.000652 | 1.08e+06
17 | B15 | 0.465 | 0.000627 | 1.34e+06
18 | B16 | 0.624 | 0.000417 | 668000
19 | B17 | 0.429 | 0.000369 | 861000
20 | B18 | 0.311 | 0.000464 | 1.49e+06
21 | B19 | 2.25 | 0.00132 | 586000
22 | B20 | 0.713 | 0.000441 | 619000
23 | B21 | 0.901 | 0.000795 | 882000
24 | B22 | 0.695 | 0.000639 | 921000

target: T1, recombinant human IL-6; test: SPR Biacore, purified dual inhibitor on Protein A chip, IL-6 analyte, 37 C

Row | Binder | Kd [nM] | koff [s⁻¹] | kon [M⁻¹ s⁻¹]
25 | B1 | 0.484 | 0.000538 | 1.11e+06
26 | B2 | 0.507 | 0.000536 | 1.06e+06
27 | B3 | 0.477 | 0.000481 | 1.01e+06
28 | B4 | 0.365 | 0.000447 | 1.23e+06
29 | B5 | 0.424 | 0.000459 | 1.08e+06
30 | B6 | 0.34 | 0.000446 | 1.31e+06

target: T1, recombinant human IL-6; test: SPR Biacore, supernatant Ab on Protein A chip, IL-6 analyte, 25 C
Protocol: as §1

Row | Binder | Kd [nM] | koff [s⁻¹] | kon [M⁻¹ s⁻¹]
31 | B9 | 0.199 | 0.000118 | 591000
32 | B10 | 0.552 | 0.0002 | –
33 | B11 | 0.323 | 0.000214 | 462000
34 | B12 | 0.386 | – | –
35 | B13 | 0.37 | 0.000173 | –
36 | B14 | 0.297 | 0.00117 | 559000
37 | B15 | 0.231 | 0.000271 | 700000
38 | B16 | 0.241 | 0.000111 | 459000
39 | B17 | 0.23 | 0.000116 | 505000
40 | B18 | 0.138 | 0.000112 | 806000
41 | B19 | 0.282 | 0.000127 | 451000
42 | B20 | 0.239 | 0.000107 | 448000
43 | B21 | 0.259 | 0.000135 | 520000
44 | B22 | 0.423 | 0.000192 | 454000
